Results: the MegaScale stability set (Tsuboyama et al. 2023)

B1: 6NMW (parent)
chain: QGDIVVALYPYDGIHPDDLSFKKGEKMKVLEEHGEWWKAKSLLTKKEGFIPSNYVAKLN
B2: HEEH_KT_rd6_3632 (parent)
chain: DAEELIELVERALKEGREIILLGVRITSEEAGKWFIEWIRRFL

Variants of: B1
Test: folding stability dG (cDNA display proteolysis); higher = more stable
Details: PBS, room temperature

Row | Variant | folding stability dG [kJ/mol]
1 | D12C | 17.9
2 | D12G | 11.3
3 | D12W | 15.8
4 | D12T | 18.1
5 | D12L | 15.4
6 | D12F | 16.5
7 | D12N | 16.6
8 | D12P | 13.1
9 | D12Q | 17.3
10 | D12M | 16.1
11 | D12V | 18.4
12 | D12K | 18.1
13 | D12S | 15.8
14 | D12A | 16.1
15 | G2V | 13.2
16 | G2A | 13.7
17 | G2H | 15.6
18 | G2C | 19
19 | G2F | 16.3
20 | G2W | 16.5
21 | G2L | 13.4
22 | G2R | 12.5
23 | G2N | 14.6
24 | G2P | 12.5
25 | G2Y | 16.5
26 | G2D | 14.5

Row | Variant | folding stability dG [kJ/mol]
27 | G2M | 14.1
28 | G2I | 13
29 | G2S | 14.8
30 | G2E | 13.7
31 | G2K | 12.1
32 | G2Q | 13.4
33 | G2T | 13.8
34 | L8F | 5.18
35 | L8S | 4.13
36 | L8N | 5.15
37 | L8Q | 6.78
38 | L8Y | 4.25
39 | L8R | 8.11
40 | L8A | 3.35
41 | L8M | 11.6
42 | L8H | 4.44
43 | L8D | -0.611
44 | L8G | 0.259
45 | L8T | 5.17
46 | L8W | 5.06
47 | L8K | 9.61
48 | L8E | 2.92
49 | L8C | 14.5
50 | L8I | 12.7
51 | L8V | 9.57
52 | P10Y | 11.1

Row | Variant | folding stability dG [kJ/mol]
53 | P10Q | 15.8
54 | P10A | 17.7
55 | P10H | 16.4
56 | P10I | 8.1
57 | P10E | 13.9
58 | P10T | 17.5
59 | P10W | 11.5
60 | P10V | 9.5
61 | P10M | 11.5
62 | P10G | 14.9
63 | P10F | 10.3
64 | P10C | 16.3
65 | P10K | 15.8
66 | P10L | 9.35
67 | P10R | 17.1
68 | P10S | 19.3
69 | P10N | 20.3
70 | D3P | 12.9
71 | D3T | 18.9
72 | D3M | 19.2
73 | D3S | 18
74 | D3G | 14.5
75 | D3F | 20.5
76 | D3H | 19.3
77 | D3K | 17.2
78 | D3C | 19.8

Row | Variant | folding stability dG [kJ/mol]
79 | D3I | 18.8
80 | D3N | 16.2
81 | D3V | 18.3
82 | D3R | 16.8
83 | D3A | 17.8
84 | D3E | 15.8
85 | D3Q | 17.9
86 | D3Y | 20.3
87 | D3L | 18.5
88 | Y11N | 2.37
89 | Y11I | 1.1
90 | Y11Q | -1.49
91 | Y11W | 17.8
92 | Y11E | -3.95
93 | Y11S | 1.54
94 | Y11M | 2.8
95 | Y11F | 16.4
96 | Y11K | 3.33
97 | Y11L | 3.56
98 | Y11V | 0.615
99 | Y11R | 9.43
100 | Y11A | -1.57
101 | Y11H | 7.15
102 | Y11C | 6.29

Variants of: B2
Test: as above
Details: PBS, room temperature

Row | Variant | folding stability dG [kJ/mol]
103 | DAEELIELVERALKEGREIILLGVRITSEEAGKWFIEWIRRML [F42M] | 15.7
104 | DAEELIELVERALKEGREIILLGVRITSEEAGKWFIEWIRRTL [F42T] | 14
105 | DAEELIELVERALKEGREIILLGVRITSEEAGKWFIEWIRRLL [F42L] | 15.6
106 | DAEELIELVERALKEGREIILLGVRITSEEAGKWFIEWIRRGL [F42G] | 12.8
107 | DAEELIELVERALKEGREIILLGVRITSEEAGKWFIEWIRRKL [F42K] | 13.2
108 | DAEELIELVERALKEGREIILLGVRITSEEAGKWFIEWIRRQL [F42Q] | 13.7
109 | DAEELIELVERALKEGREIILLGVRITSEEAGKWFIEWIRRWL [F42W] | 17
110 | DAEELIELVERALKEGREIILLGVRITSEEAGKWFIEWIRRSL [F42S] | 13.2
111 | DAEELIELVERALKEGREIILLGVRITSEEAGKWFIEWIRRRL [F42R] | 13.8
112 | DAEELIELVERALKEGREIILLGVRITSEEAGKWFIEWIRRNL [F42N] | 13.4
113 | DAEELIELVERALKEGREIILLGVRITSEEAGKWFIEWIRRHL [F42H] | 14.4
114 | DAEELIELVERALKEGREIILLGVRITSEEAGKWFIEWIRRPL [F42P] | 10.5
115 | DAEELIELVERALKEGREIILLGVRITSEEAGKWFIEWIRREL [F42E] | 12.2
116 | DAEELIELVERALKEGREIILLGVRITSEEAGKWFIEWIRRYL [F42Y] | 15.5
117 | DAEELIELVERALKEGREIILLGVRITSEEAGKWFIEWIRRVL [F42V] | 15
118 | DAEELIELVERALKEGREIILLGVRITSEEAGKWFIEWIRRIL [F42I] | 15.4
119 | DAEELIELVERALKEGREIILLGVRITSEEAGKWFIEWIRRFA [L43A] | 14

Row | Variant | folding stability dG [kJ/mol]
120 | DAEELIELVERALKEGREIILLGVRITSEEAGKWFIEWIRRFV [L43V] | 14.6
121 | DAEELIELVERALKEGREIILLGVRITSEEAGKWFIEWIRRFY [L43Y] | 16
122 | DAEELIELVERALKEGREIILLGVRITSEEAGKWFIEWIRRFW [L43W] | 16.3
123 | DAEELIELVERALKEGREIILLGVRITSEEAGKWFIEWIRRFM [L43M] | 15.9
124 | DAEELIELVERALKEGREIILLGVRITSEEAGKWFIEWIRRFR [L43R] | 12.7
125 | DAEELIELVERALKEGREIILLGVRITSEEAGKWFIEWIRRFF [L43F] | 16.8
126 | DAEELIELVERALKEGREIILLGVRITSEEAGKWFIEWIRRFS [L43S] | 13.3
127 | DAEELIELVERALKEGREIILLGVRITSEEAGKWFIEWIRRFE [L43E] | 12.2
128 | DAEELIELVERALKEGREIILLGVRITSEEAGKWFIEWIRRFH [L43H] | 13.3
129 | DAEELIELVERALKEGREIILLGVRITSEEAGKWFIEWIRRFN [L43N] | 12.4
130 | DAEELIELVERALKEGREIILLGVRITSEEAGKWFIEWIRRFP [L43P] | 11
131 | DAEELIELVERALKEGREIILLGVRITSEEAGKWFIEWIRRFD [L43D] | 11.5
132 | DAEELIELVERALKEGREIILLGVRITSEEAGKWFIEWIRRFQ [L43Q] | 13.5
133 | DAEELIELVERALKEGREIILLGVRITSEEAGKWFIEWIRRFK [L43K] | 12.9
134 | DAEELIELVERALKEGREIILLGVRITSEEAGKWFIEWIRRFT [L43T] | 13.6
135 | DAEELIELVERALKEGREIILLGVRITSEEAGKWFIEWIRRFI [L43I] | 15.1
136 | DAEELIELVERALKEGREIILLGVRITSEEAGKWFIEWIRRFG [L43G] | 12.7
